What all share (assay): cell-based or functional assay
In assay [1] the target is HIV-1 SC422661.8 Env (pseudovirus) (HIV-1).
Assay [2] has as its target HIV-1 Env of isolate MG RM-D-022 (subtype D) (HIV-1).
Assay [3] has as its target HIV-1 92BR020 Env (pseudovirus) (HIV-1).
In assay [4] the target is HIV-1 MGRM-Chronic-B-023 Env (pseudovirus) (HIV-1).
The target of assay [5] is HIV-1 Env of isolate MGRM-C-022 (pseudovirus) (HIV-1 isolate MGRM-C-022, subtype C).
Assay [6] concerns the target HIV-1 TRO.11 Env (pseudovirus) (HIV-1).
For assay [7], the target named is HIV-1 Env of isolate MGRM-C-014 (pseudovirus) (HIV-1 isolate MGRM-C-014, subtype C).
The target in assay [8] is HIV-1 Env of isolate MGRM-F1-004 (subtype F) (HIV-1).
Assay [9] deals with HIV-1 JR-CSF Env D474A (HIV-1 (isolate JR-CSF)) (UniProt P20871).
Assay [10] concerns the target HIV-1 JR-CSF Env D113A (HIV-1 (isolate JR-CSF)) (UniProt P20871).
Assay [11] addresses HIV-1 JR-CSF Env N197A (HIV-1 (isolate JR-CSF)) (UniProt P20871).
In assay [12] the target is HIV-1 MGRM-C-027 envelope glycoprotein (Env) on pseudovirus (HIV-1).
Assay [13] has as its target HIV-1 Env of isolate VLGCA1 (clade A), on pseudovirus (HIV-1).
Assay [14] addresses HIV-1 Env of isolate MGRM-Chronic-B-002 (HIV-1).
Assay [15] concerns the target HIV-1 Env of isolate MGRM-D-026 (subtype D), on pseudovirus (HIV-1).
Assay [16] has as its target HIV-1 Env of isolate 92UG005 (HIV-1).
For assay [17], the target named is HIV-1 Env of isolate MGRM-C-019 (HIV-1).
Assay [18] deals with HIV-1 Env of isolate MGRM-C-015 (HIV-1).
Assay [19] addresses HIV-1 Env of isolate 98CN006 (HIV-1).
The target in assay [20] is HIV-1 Env of isolate MGRM-D-005 (HIV-1).
Assay [21] concerns the target HIV-1 Env of isolate MGRM-F1-023 (subtype F), on pseudovirus (HIV-1).
For assay [22], the target named is HIV-1 Env of isolate CAAN.A2 (HIV-1).
Assay [23] deals with HIV-1 Env of isolate 92RW008 (HIV-1).
Assay [24] concerns the target HIV-1 Env of isolate MGRM-AG-008 (CRF_AG), on pseudovirus (HIV-1).
Assay [25] addresses HIV-1 Env of isolate MGRM-AE-004 (CRF01_AE), on pseudovirus (HIV-1).
The target of assay [26] is HIV-1 Env of isolate MGRM-D-002 (HIV-1).
In assay [27] the target is HIV-1 Env of isolate MGRM-D-012 (HIV-1).
Assay [28] concerns the target HIV-1 Env of isolate 92TH021 (CRF01_AE), on pseudovirus (HIV-1).

With 4838_L06 (PGT-121) (antibody), the IC50, pseudovirus neutralization in assay [1] turned out to be 0.098 µg/mL; in [4], 0.005 µg/mL; in assay [6], 0.008 µg/mL. In addition, the IC50 (µg/mL), pseudovirus neutralization in assay [2] was over 50 µg/mL; in assay [8] it was 1.67 µg/mL. In [3], the neutralization IC80 was 0.0532 µg/mL. The substance further came in with a neutralization IC90 in assay [3] of 0.101 µg/mL. In addition, the IC50 (µg/mL) neutralization in assay [5] was found to be 0.015 µg/mL; in [7], 26.9 µg/mL.
4858_P08 (PGT-123) (antibody): the Fold IC50 increase relative to wild-type in assay [9] is 1.1 fold; in assay [10], 1.1 fold; in assay [11] it was 1.4 fold. Besides, the IC50, pseudovirus neutralization in assay [1] amounted to 0.039 µg/mL; in assay [3] it was 0.008 µg/mL; in assay [4] it was 0.055 µg/mL; in assay [12], 0.0169 µg/mL; in [6], 0.008 µg/mL. For the same substance, the IC50 (µg/mL), pseudovirus neutralization was over 50 µg/mL in assay [2] and 1.78 µg/mL in assay [8]. In [12], this substance came in with an IC50 (ug/ml), neutralizing activity of 0.0169 µg/mL. In [12], the IC80, pseudovirus neutralization turned out to be 0.149 µg/mL. Moreover, in assay [12], the IC90 (pseudovirus neutralization) is over 10 µg/mL. This substance also yielded an IC95, pseudovirus neutralization in assay [12] of over 10 µg/mL. In addition, the IC50 (µg/mL) neutralization was 0.01 µg/mL in assay [5] and 1 µg/mL in assay [7].
Take 4877_D15 (PGT-122) (antibody): the IC50, pseudovirus neutralization in assay [1] is 0.103 µg/mL; in assay [3], 0.021 µg/mL; in assay [4] it was 0.01 µg/mL; in assay [6] it was 0.011 µg/mL. For the same substance, the IC50 (µg/mL), pseudovirus neutralization in assay [2] was over 50 µg/mL; in assay [8] it was 1.29 µg/mL. In addition, in assay [12], the IC50 (ug/ml), neutralizing activity was determined as 0.0388 µg/mL. Moreover, the IC50 (µg/mL) neutralization in [5] was 0.012 µg/mL; in [7] it was over 50 µg/mL.
For 5114_A19 (PGT-128) (antibody), the IC50, single-round pseudovirus neutralization in assay [13] is 0.838 µg/mL; in assay [24], 0.668 µg/mL; in assay [25], over 50 µg/mL; in [28], 0.01 µg/mL. The Fold IC50 increase relative to wild-type in assay [9] was determined as 0.8 fold; in assay [10], 0.5 fold; in assay [11] it was 1 fold. Moreover, the IC50 in assay [14] is 0.036 µg/mL; in assay [16], 0.018 µg/mL; in [17] it was 0.01 µg/mL; in assay [18] it was 0.196 µg/mL; in [19], 0.015 µg/mL; in assay [20], 0.051 µg/mL. In addition, the concentration for half-maximal inhibition (IC50) was 1.48 µg/mL in [22], 0.011 µg/mL in [26] and over 50 µg/mL in assay [27]. Besides, the IC50, pseudovirus neutralization in assay [15] was over 50 µg/mL; in assay [21], 0.007 µg/mL. For the same substance, the neutralization IC50 in assay [23] is 0.003 µg/mL.
Consider 5123_A06 (PGT-125) (antibody), for which the Fold IC50 increase relative to wild-type was found to be 1.4 fold in assay [9], 1.1 fold in [10] and 1 fold in [11]. The IC50, pseudovirus neutralization in assay [1] was 30.1 µg/mL; in assay [3], 0.016 µg/mL; in assay [4], over 50 µg/mL; in assay [6], 0.111 µg/mL. The IC50 (µg/mL), pseudovirus neutralization is 0.04 µg/mL in assay [2] and over 50 µg/mL in [8]. In assay [12], this substance registered an IC50 (ug/ml), neutralizing activity of over 10 µg/mL. Also, the neutralization IC50 in [12] was over 10 µg/mL. Moreover, the neutralization IC80 in assay [12] is over 10 µg/mL. In addition, the neutralization IC90 in [12] was over 10 µg/mL. In addition, the neutralization IC95 in assay [12] is over 10 µg/mL. Moreover, the IC50 (µg/mL) neutralization in assay [5] was 1.23 µg/mL; in assay [7], over 50 µg/mL.
For the substance 5136_H01 (PGT-131) (antibody), the IC50, single-round pseudovirus neutralization in assay [13] was over 50 µg/mL; in assay [24] it was over 50 µg/mL; in assay [25] it was over 50 µg/mL; in [28], 0.014 µg/mL. Also, the Fold IC50 increase relative to wild-type in [9] is 1.6 fold; in assay [11] it was 1.1 fold. In addition, the half-maximal inhibitory concentration (IC50) in [14] was over 50 µg/mL; in assay [16], 0.854 µg/mL; in [17], 0.021 µg/mL; in [18], 1.01 µg/mL; in [19], 35.3 µg/mL; in assay [20] it was over 50 µg/mL. Also, the half-maximal inhibitory concentration (IC50) in assay [22] is over 50 µg/mL; in assay [26], 11.2 µg/mL; in assay [27] it was over 50 µg/mL. Besides, the IC50, pseudovirus neutralization in [15] and in assay [21] was over 50 µg/mL throughout. This substance also came in with a neutralization IC50 in [23] of 1.01 µg/mL.
On to 5141_B17 (PGT-126) (antibody), for which the Fold IC50 increase relative to wild-type was found to be 3.3 fold in [9], 1.2 fold in assay [10] and 1.1 fold in [11]. The IC50, pseudovirus neutralization in assay [1] was 0.119 µg/mL; in assay [3] it was 0.015 µg/mL; in assay [4], over 50 µg/mL; in assay [6], 0.041 µg/mL. Further, the IC50 (µg/mL), pseudovirus neutralization in assay [2] was over 50 µg/mL; in [8], 0.063 µg/mL. In assay [3], the IC50 worked out at 0.0163 µg/mL. Further, the IC80 in assay [3] was 0.0457 µg/mL. In [3], the 90% effect concentration (IC90) was 0.0846 µg/mL. Also, the IC95 in assay [3] is 0.152 µg/mL. In addition, in assay [12], the IC50 (ug/ml), neutralizing activity is 1.14 µg/mL. Also, the IC50 (µg/mL) neutralization was 0.96 µg/mL in [5] and over 50 µg/mL in [7].
In the case of 5145_B14 (PGT-127) (antibody), the values for the Fold IC50 increase relative to wild-type in [9], in [10] and in [11] were 1.5 fold, 0.3 fold and 0.6 fold, respectively. Besides, the IC50, pseudovirus neutralization in assay [1] is 36.7 µg/mL; in assay [3], 0.059 µg/mL; in [4] it was over 50 µg/mL; in assay [6], 0.079 µg/mL. In addition, the IC50 (µg/mL), pseudovirus neutralization in assay [2] was over 50 µg/mL; in assay [8], 0.068 µg/mL. Also, the figures for the IC50 (µg/mL) neutralization in [5] and in assay [7] were 0.41 µg/mL and over 50 µg/mL, respectively.
On to 5329_C19 (PGT-136) (antibody), for which the IC50, single-round pseudovirus neutralization in assay [13], in assay [24], in assay [25] and in [28] was over 50 µg/mL each time. Also, the half-maximal inhibitory concentration (IC50) in assay [14] was over 50 µg/mL; in assay [16], over 50 µg/mL; in [17], 20.1 µg/mL; in [18], 11.1 µg/mL; in [19], 0.406 µg/mL; in assay [20], over 50 µg/mL. For the same substance, the IC50 in [22], in [26] and in assay [27] was over 50 µg/mL throughout. Further, the IC50, pseudovirus neutralization in [15] and in assay [21] was over 50 µg/mL in each case. The substance further registered a neutralization IC50 in assay [23] of over 50 µg/mL.
For the substance 5345_I01 (PGT-137) (antibody), the IC50, single-round pseudovirus neutralization in assay [13], in assay [24], in assay [25] and in [28] was over 50 µg/mL throughout. Moreover, the IC50 was over 50 µg/mL in assay [14]; over 50 µg/mL in assay [16]; over 50 µg/mL in assay [17]; 1.98 µg/mL in assay [18]; 1.22 µg/mL in assay [19]; over 50 µg/mL in assay [20]. Also, the IC50 in assay [22], in assay [26] and in assay [27] was over 50 µg/mL each time. Further, the IC50, pseudovirus neutralization in assay [15] and in assay [21] was over 50 µg/mL in each case. Further, the neutralization IC50 in assay [23] stood at 0.148 µg/mL.

Values taken from US20200024330A1.
